Consider one molecule from paper PMC9050887 (2023).

For this test, the target named is T1, GSDMD (Mus musculus, UniProt Q9D8T2).
T1 chain: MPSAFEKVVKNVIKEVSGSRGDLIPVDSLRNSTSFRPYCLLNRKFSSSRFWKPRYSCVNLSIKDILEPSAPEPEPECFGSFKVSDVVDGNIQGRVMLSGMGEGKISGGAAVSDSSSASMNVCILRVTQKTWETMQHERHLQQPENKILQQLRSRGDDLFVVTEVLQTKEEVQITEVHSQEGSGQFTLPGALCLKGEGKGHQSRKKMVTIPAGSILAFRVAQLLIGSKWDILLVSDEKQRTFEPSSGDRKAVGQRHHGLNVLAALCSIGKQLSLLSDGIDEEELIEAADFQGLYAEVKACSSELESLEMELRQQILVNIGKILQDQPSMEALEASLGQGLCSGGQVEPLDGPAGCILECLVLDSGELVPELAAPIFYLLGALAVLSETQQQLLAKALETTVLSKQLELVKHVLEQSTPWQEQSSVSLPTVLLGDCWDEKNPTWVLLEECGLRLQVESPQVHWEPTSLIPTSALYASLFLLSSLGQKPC
In words: SPR.

B1: CIRP (protein)
chain: MASDEGKLFVGGLSFDTNEQALEQVFSKYGQISEVVVVKDRETQRSRGFGFVTFENIDDAKDAMMAMNGKSVDGRQIRVDQAGKSSDNRSRGYRGGSAGGRGFFRGGRSRGRGFSRGGGDRGYGGGRFESRSGGYGGSRDYYASRSQGGSYGYRSSGGSYRDSYDSYATHNE
Take B1: binding was put at a Kd of 487 nM.

What is called Kd is a measure of binding affinity in units of concentration. Lower therefore signals a tighter complex.
